The assay deals with catalytic subunit of DNA polymerase ε (POLE), endogenous (human (endogenous in Jurkat and in …, UniProt Q07864 1-2286)). In words: nHU, apparent Kd.
catalytic subunit of DNA polymerase ε (POLE), endogenous (human, sequence (Q07864 whole entry): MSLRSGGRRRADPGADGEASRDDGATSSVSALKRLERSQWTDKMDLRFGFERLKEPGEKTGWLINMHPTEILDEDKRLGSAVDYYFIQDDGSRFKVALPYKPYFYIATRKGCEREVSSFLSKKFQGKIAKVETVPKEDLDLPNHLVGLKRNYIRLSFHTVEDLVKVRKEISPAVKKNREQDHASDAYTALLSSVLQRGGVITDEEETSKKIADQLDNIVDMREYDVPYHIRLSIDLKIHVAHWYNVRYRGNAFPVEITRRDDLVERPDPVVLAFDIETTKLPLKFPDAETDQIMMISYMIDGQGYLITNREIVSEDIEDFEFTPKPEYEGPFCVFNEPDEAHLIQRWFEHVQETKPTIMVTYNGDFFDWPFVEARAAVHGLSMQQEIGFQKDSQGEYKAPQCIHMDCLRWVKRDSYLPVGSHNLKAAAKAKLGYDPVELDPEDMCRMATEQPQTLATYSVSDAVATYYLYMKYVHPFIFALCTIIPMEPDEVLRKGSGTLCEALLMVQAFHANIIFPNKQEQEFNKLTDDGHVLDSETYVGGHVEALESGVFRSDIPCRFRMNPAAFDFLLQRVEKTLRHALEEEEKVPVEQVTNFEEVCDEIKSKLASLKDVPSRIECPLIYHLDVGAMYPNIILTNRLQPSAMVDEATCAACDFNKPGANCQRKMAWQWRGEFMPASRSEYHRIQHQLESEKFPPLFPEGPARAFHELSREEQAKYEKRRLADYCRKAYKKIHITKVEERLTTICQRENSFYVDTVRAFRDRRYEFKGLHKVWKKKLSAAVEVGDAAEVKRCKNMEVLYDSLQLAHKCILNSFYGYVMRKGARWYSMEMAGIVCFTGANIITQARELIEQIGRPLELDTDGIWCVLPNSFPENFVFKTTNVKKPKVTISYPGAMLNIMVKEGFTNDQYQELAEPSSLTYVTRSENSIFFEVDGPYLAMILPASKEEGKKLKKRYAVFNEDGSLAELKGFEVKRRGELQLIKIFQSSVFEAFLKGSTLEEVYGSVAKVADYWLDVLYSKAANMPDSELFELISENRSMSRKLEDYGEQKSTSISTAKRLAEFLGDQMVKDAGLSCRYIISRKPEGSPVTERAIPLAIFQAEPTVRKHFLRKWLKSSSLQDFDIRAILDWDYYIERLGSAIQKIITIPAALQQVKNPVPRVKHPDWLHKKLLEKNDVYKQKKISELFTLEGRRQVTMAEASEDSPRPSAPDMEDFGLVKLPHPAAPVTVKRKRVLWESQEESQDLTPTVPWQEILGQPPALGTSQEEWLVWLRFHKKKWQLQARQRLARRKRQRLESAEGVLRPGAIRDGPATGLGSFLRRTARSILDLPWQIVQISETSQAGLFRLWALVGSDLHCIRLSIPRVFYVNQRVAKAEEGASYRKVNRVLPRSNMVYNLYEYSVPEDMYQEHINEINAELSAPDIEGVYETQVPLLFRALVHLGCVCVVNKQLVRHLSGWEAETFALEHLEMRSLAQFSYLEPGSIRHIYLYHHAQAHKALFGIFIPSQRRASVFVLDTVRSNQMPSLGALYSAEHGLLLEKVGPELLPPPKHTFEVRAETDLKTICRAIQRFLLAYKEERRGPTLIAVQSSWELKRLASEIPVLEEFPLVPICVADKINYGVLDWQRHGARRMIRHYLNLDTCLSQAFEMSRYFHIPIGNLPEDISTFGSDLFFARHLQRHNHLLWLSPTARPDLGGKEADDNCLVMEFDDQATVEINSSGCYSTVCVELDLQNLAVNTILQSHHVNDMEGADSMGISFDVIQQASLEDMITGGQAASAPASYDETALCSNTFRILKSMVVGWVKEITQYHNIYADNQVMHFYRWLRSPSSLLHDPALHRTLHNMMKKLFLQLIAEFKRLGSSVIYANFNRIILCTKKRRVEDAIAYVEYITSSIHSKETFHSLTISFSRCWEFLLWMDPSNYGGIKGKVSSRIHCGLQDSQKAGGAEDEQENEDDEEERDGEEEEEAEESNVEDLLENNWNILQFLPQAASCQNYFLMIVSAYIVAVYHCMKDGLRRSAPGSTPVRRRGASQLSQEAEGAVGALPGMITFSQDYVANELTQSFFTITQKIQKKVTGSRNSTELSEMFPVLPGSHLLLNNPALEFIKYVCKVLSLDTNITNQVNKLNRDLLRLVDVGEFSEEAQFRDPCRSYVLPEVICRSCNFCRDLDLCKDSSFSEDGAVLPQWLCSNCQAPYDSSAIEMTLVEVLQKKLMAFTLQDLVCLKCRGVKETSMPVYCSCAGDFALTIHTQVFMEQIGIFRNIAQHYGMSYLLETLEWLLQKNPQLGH

B1: NPF motif peptide of POLA1 (residues 177-206) (peptide)
peptide: PVMILKKKRSIGASPNPFSVHTATAVPSGK
HELM: PEPTIDE1{[O=C1N[C@H]2[C@H](CS[C@H]2CCCCC(=O)[*:2])N1].[O=C(CCCCCN[*:1])[*:2]].P.V.M.I.L.K.K.K.R.S.I.G.A.S.P.N.P.F.S.V.H.T.A.T.A.V.P.S.G.K.[am]}$$$$V2.0
SMILES: CC[C@H](C)[C@H](NC(=O)[C@H](CO)NC(=O)[C@H](CCCNC(=N)N)NC(=O)[C@H](CCCCN)NC(=O)[C@H](CCCCN)NC(=O)[C@H](CCCCN)NC(=O)[C@H](CC(C)C)NC(=O)[C@@H](NC(=O)[C@H](CCSC)NC(=O)[C@@H](NC(=O)[C@@H]1CCCN1C(=O)CCCCCNC(=O)CCCC[C@@H]1SC[C@@H]2NC(=O)N[C@@H]21)C(C)C)[C@@H](C)CC)C(=O)NCC(=O)N[C@@H](C)C(=O)N[C@@H](CO)C(=O)N1CCC[C@H]1C(=O)N[C@@H](CC(N)=O)C(=O)N1CCC[C@H]1C(=O)N[C@@H](Cc1ccccc1)C(=O)N[C@@H](CO)C(=O)N[C@H](C(=O)N[C@@H](Cc1c[nH]cn1)C(=O)N[C@H](C(=O)N[C@@H](C)C(=O)N[C@H](C(=O)N[C@@H](C)C(=O)N[C@H](C(=O)N1CCC[C@H]1C(=O)N[C@@H](CO)C(=O)NCC(=O)N[C@@H](CCCCN)C(N)=O)C(C)C)[C@@H](C)O)[C@@H](C)O)C(C)C
Regarding B1, the Kd was 2500 nM.

For the origin of these results see PMC12808100 (2025).
